Results published in publication PMC2756588.

T1: Fus1, P11710
T1 sequence (P11710 432-512, looked up): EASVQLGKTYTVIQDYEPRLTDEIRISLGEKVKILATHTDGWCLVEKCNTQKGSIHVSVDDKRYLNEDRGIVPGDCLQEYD

T2: Sla1-2, P32790
T2 sequence (P32790 60-140, looked up): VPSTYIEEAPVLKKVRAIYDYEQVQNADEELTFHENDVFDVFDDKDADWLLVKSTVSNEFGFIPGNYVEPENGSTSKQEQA

T3: Hse1, P38753
T3 sequence (P38753 208-285, looked up): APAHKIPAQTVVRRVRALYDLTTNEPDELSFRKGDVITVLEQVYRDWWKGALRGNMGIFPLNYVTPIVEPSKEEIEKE

T4: Pex13, P80667
T4 sequence (P80667 295-386, looked up): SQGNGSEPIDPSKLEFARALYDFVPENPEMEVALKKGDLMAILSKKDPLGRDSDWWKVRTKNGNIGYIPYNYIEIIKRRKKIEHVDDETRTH

T5: Bbc1, P47068
T5 sequence (P47068 1-78, looked up): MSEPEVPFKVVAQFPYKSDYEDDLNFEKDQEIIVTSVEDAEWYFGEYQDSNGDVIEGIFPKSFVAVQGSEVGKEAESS

T6: Cyk3, Q07533
T6 sequence (Q07533 1-83, looked up): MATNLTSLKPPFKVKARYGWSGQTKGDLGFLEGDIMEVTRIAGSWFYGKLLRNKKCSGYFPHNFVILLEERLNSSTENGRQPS

T7: Abp1, P15891
T7 sequence (P15891 535-592, looked up): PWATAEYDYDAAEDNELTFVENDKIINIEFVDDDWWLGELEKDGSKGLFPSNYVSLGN

T8: Boi2, P39969
T8 sequence (P39969 32-116, looked up): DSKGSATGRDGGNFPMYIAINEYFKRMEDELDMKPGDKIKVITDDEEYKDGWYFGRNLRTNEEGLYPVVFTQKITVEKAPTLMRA

T9: Bzz1-2, P38822
T9 sequence (P38822 568-633, looked up): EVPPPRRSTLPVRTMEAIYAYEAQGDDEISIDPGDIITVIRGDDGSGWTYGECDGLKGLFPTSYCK

T10: Lsb4, P32793
T10 sequence (P32793 402-468, looked up): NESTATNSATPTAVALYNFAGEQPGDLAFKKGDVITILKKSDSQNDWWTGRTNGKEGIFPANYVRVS

T11: Bzz1-1, P38822
T11 sequence (P38822 478-572, looked up): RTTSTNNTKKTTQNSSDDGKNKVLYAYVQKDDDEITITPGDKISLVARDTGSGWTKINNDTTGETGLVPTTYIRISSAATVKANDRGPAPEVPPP

T12: Lsb1, P53281
T12 sequence (P53281 45-122, looked up): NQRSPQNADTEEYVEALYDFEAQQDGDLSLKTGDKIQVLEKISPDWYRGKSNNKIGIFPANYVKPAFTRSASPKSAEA

T13: Bud14, P27637
T13 sequence (P27637 247-328, looked up): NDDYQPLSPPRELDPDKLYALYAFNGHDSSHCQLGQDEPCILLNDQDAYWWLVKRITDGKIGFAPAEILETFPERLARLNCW

T14: Cdc25, P04821
T14 sequence (P04821 50-136, looked up): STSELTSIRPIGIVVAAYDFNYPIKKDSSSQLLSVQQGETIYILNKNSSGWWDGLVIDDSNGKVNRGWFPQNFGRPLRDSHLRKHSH

T15: Pin3, Q06449
T15 sequence (Q06449 53-122, looked up): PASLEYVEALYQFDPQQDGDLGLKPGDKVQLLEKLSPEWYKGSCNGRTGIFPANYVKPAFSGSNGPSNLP

T16: Lsb3, P43603
T16 sequence (P43603 385-451, looked up): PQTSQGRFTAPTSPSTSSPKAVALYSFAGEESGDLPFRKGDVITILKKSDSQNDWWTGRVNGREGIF

T17: Nbp2, Q12163
T17 sequence (Q12163 103-180, looked up): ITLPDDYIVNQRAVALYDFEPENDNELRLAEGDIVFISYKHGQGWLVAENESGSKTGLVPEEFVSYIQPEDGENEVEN

T18: Sla1-3, P32790
T18 sequence (P32790 344-424, looked up): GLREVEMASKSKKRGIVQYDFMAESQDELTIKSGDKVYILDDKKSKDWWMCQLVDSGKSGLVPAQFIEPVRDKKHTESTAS

T19: Myo5, Q04439
T19 sequence (Q04439 1072-1160, looked up): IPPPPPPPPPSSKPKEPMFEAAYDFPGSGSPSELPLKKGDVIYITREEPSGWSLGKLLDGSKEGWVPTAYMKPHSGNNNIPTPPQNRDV

T20: Hof1, Q05080
T20 sequence (Q05080 590-669, looked up): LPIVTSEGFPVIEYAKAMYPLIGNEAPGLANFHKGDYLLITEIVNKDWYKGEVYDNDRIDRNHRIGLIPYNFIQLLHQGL

T21: Boi1, P38041
T21 sequence (P38041 1-86, looked up): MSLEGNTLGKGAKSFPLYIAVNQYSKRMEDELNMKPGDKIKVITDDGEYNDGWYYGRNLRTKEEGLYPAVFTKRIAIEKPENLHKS


molecular target: GST; experiment: SPOT array; conditions: median of control spots 978

Row | SPOT intensity | Binder
1 | 0 | PLRRTVMSLPGNHDI
2 | 2 | NHSRSLFSLPGNQQS
3 | 0 | NPNRRAPRRPLSTQH

molecular target: T1, Fus1, P11710; experiment: SPOT array; conditions: median of control spots 1200

Row | SPOT intensity | Binder
4 | 1 | PLRRTVMSLPGNHDI
5 | 653 | NHSRSLFSLPGNQQS
6 | 59 | NPNRRAPRRPLSTQH

molecular target: T2, Sla1-2, P32790; experiment: SPOT array; conditions: median of control spots 712

Row | SPOT intensity | Binder
7 | 3 | PLRRTVMSLPGNHDI
8 | 1 | NHSRSLFSLPGNQQS
9 | 4 | NPNRRAPRRPLSTQH

molecular target: T3, Hse1, P38753; experiment: SPOT array; conditions: median of control spots 1727

Row | SPOT intensity | Binder
10 | 1 | PLRRTVMSLPGNHDI
11 | 114 | NHSRSLFSLPGNQQS
12 | 113 | NPNRRAPRRPLSTQH

molecular target: T4, Pex13, P80667; experiment: SPOT array; conditions: median of control spots 1341

Row | SPOT intensity | Binder
13 | 31 | PLRRTVMSLPGNHDI
14 | 36 | NHSRSLFSLPGNQQS
15 | 27 | NPNRRAPRRPLSTQH

molecular target: T5, Bbc1, P47068; experiment: SPOT array; conditions: median of control spots 796

Row | SPOT intensity | Binder
16 | 0 | PLRRTVMSLPGNHDI
17 | 35 | NHSRSLFSLPGNQQS
18 | 294 | NPNRRAPRRPLSTQH

molecular target: Myo3, P36006; experiment: SPOT array; conditions: median of control spots 468

Row | SPOT intensity | Binder
19 | 23 | PLRRTVMSLPGNHDI
20 | 13 | NHSRSLFSLPGNQQS
21 | 46 | NPNRRAPRRPLSTQH

molecular target: T6, Cyk3, Q07533; experiment: SPOT array; conditions: median of control spots 1451

Row | SPOT intensity | Binder
22 | 0 | PLRRTVMSLPGNHDI
23 | 0 | NHSRSLFSLPGNQQS
24 | 3 | NPNRRAPRRPLSTQH

molecular target: Sho1, P40073; experiment: SPOT array; conditions: median of control spots 1148
Sequence (P40073 287-367): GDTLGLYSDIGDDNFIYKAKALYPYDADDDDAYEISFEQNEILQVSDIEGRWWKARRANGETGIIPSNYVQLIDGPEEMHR

Row | SPOT intensity | Binder
25 | 12 | PLRRTVMSLPGNHDI
26 | 141 | NHSRSLFSLPGNQQS
27 | 267 | NPNRRAPRRPLSTQH

molecular target: T7, Abp1, P15891; experiment: SPOT array; conditions: median of control spots 935

Row | SPOT intensity | Binder
28 | 24 | PLRRTVMSLPGNHDI
29 | 53 | NHSRSLFSLPGNQQS
30 | 151 | NPNRRAPRRPLSTQH

molecular target: T8, Boi2, P39969; experiment: SPOT array; conditions: median of control spots 1161

Row | SPOT intensity | Binder
31 | 0 | PLRRTVMSLPGNHDI
32 | 2 | NHSRSLFSLPGNQQS
33 | 0 | NPNRRAPRRPLSTQH

molecular target: T9, Bzz1-2, P38822; experiment: SPOT array; conditions: median of control spots 4538

Row | SPOT intensity | Binder
34 | 1 | PLRRTVMSLPGNHDI
35 | 19 | NHSRSLFSLPGNQQS
36 | 56 | NPNRRAPRRPLSTQH

molecular target: T10, Lsb4, P32793; experiment: SPOT array; conditions: median of control spots 397

Row | SPOT intensity | Binder
37 | 0 | PLRRTVMSLPGNHDI
38 | 0 | NHSRSLFSLPGNQQS
39 | 18 | NPNRRAPRRPLSTQH

molecular target: T11, Bzz1-1, P38822; experiment: SPOT array; conditions: median of control spots 4446

Row | SPOT intensity | Binder
40 | 1 | PLRRTVMSLPGNHDI
41 | 2 | NHSRSLFSLPGNQQS
42 | 0 | NPNRRAPRRPLSTQH

molecular target: T12, Lsb1, P53281; experiment: SPOT array; conditions: median of control spots 388

Row | SPOT intensity | Binder
43 | 75 | PLRRTVMSLPGNHDI
44 | 46 | NHSRSLFSLPGNQQS
45 | 52 | NPNRRAPRRPLSTQH

molecular target: T13, Bud14, P27637; experiment: SPOT array; conditions: median of control spots 956

Row | SPOT intensity | Binder
46 | 2 | PLRRTVMSLPGNHDI
47 | 7 | NHSRSLFSLPGNQQS
48 | 17 | NPNRRAPRRPLSTQH

molecular target: T14, Cdc25, P04821; experiment: SPOT array; conditions: median of control spots 969

Row | SPOT intensity | Binder
49 | 16 | PLRRTVMSLPGNHDI
50 | 333 | NHSRSLFSLPGNQQS
51 | 221 | NPNRRAPRRPLSTQH

molecular target: T15, Pin3, Q06449; experiment: SPOT array; conditions: median of control spots 2171

Row | SPOT intensity | Binder
52 | 72 | PLRRTVMSLPGNHDI
53 | 16 | NHSRSLFSLPGNQQS
54 | 4 | NPNRRAPRRPLSTQH

molecular target: Bem1-1, P29366; experiment: SPOT array; conditions: median of control spots 4282
Sequence (P29366 55-141): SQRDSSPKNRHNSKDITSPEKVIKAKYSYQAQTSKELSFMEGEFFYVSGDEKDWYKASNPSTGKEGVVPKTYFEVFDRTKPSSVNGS

Row | SPOT intensity | Binder
55 | 1 | PLRRTVMSLPGNHDI
56 | 3 | NHSRSLFSLPGNQQS
57 | 3 | NPNRRAPRRPLSTQH

molecular target: T16, Lsb3, P43603; experiment: SPOT array; conditions: median of control spots 406

Row | SPOT intensity | Binder
58 | 0 | PLRRTVMSLPGNHDI
59 | 0 | NHSRSLFSLPGNQQS
60 | 2 | NPNRRAPRRPLSTQH

molecular target: T17, Nbp2, Q12163; experiment: SPOT array; conditions: median of control spots 357

Row | SPOT intensity | Binder
61 | 18 | PLRRTVMSLPGNHDI
62 | 77 | NHSRSLFSLPGNQQS
63 | 626 | NPNRRAPRRPLSTQH

molecular target: T18, Sla1-3, P32790; experiment: SPOT array; conditions: median of control spots 5475

Row | SPOT intensity | Binder
64 | 0 | PLRRTVMSLPGNHDI
65 | 124 | NHSRSLFSLPGNQQS
66 | 607 | NPNRRAPRRPLSTQH

molecular target: T19, Myo5, Q04439; experiment: SPOT array; conditions: median of control spots 471

Row | SPOT intensity | Binder
67 | 12 | PLRRTVMSLPGNHDI
68 | 1 | NHSRSLFSLPGNQQS
69 | 0 | NPNRRAPRRPLSTQH

molecular target: T20, Hof1, Q05080; experiment: SPOT array; conditions: median of control spots 4086

Row | SPOT intensity | Binder
70 | 0 | PLRRTVMSLPGNHDI
71 | 364 | NHSRSLFSLPGNQQS
72 | 70 | NPNRRAPRRPLSTQH

molecular target: Bem1-2, P29366; experiment: SPOT array; conditions: median of control spots 4347
Sequence (P29366 139-227): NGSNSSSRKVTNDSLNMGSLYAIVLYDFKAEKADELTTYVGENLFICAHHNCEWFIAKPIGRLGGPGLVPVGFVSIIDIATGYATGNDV

Row | SPOT intensity | Binder
73 | 6 | PLRRTVMSLPGNHDI
74 | 353 | NHSRSLFSLPGNQQS
75 | 476 | NPNRRAPRRPLSTQH

molecular target: T21, Boi1, P38041; experiment: SPOT array; conditions: median of control spots 1162

Row | SPOT intensity | Binder
76 | 0 | PLRRTVMSLPGNHDI
77 | 7 | NHSRSLFSLPGNQQS
78 | 28 | NPNRRAPRRPLSTQH

molecular target: Rvs167, P39743; experiment: SPOT array; conditions: median of control spots 2707
Sequence (P39743 419-482): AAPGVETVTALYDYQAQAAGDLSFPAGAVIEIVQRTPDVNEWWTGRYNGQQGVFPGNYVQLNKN

Row | SPOT intensity | Binder
79 | 0 | PLRRTVMSLPGNHDI
80 | 0 | NHSRSLFSLPGNQQS
81 | 0 | NPNRRAPRRPLSTQH
